Source: US20130288275A1, “COMPOSITIONS AND METHODS FOR DETECTING ACETYLATED SUMO PROTEINS” (Georgetown University, priority 2010, published 2013)

Test system: H1299 cells
Assay: Cell cycle analysis by flow cytometry
Type: cell-based, human
Settings: H1299 cells infected with adenovirus expressing p53, 72 hours after infection
Procedure: FIG. 5. […] 72 hours after infection, cells were harvested and their cell cycle profile was analyzed (see materials and methods). B-C.
Flow cytometry was performed as described previously by Knights, C. D., et al. J. Cell Biol. 173(4):533-544 (2006).

B1: SUMO-1K37-48R: SUMO-1 mutant with lysines K37-K39 and K45, K46 and K48 substituted with arginine (protein, UniProt P63165 2-97, looked up, variant K37R K39R K45R K46R K48R)
Small ubiquitin-related …: SDQEAKPSTEDLGDKKEGEYIKLKVIGQDSSEIHFRVRMTTHLRRLRESYCQRQGVPMNSLRFLFEGQRIADNHTPKELGMEEEDVIEVYQEQTGG
- apoptotic cells: ~2%
